The text below walks through data of article PMC6599547 (Journal of molecular biology, 2019).

The target in this test is T1, N-terminally tagged soluble SARAF luminal domain, SP-XFP-SARAFL-R (SARAF(Δ165-339) with signal peptide and … (human, UniProt Q96BY9 31-164)).
T1 sequence: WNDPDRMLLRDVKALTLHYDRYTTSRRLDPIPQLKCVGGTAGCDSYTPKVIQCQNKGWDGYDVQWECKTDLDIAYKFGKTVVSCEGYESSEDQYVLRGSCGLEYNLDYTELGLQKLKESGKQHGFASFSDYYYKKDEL
As to the kind of experiment: FRET or BRET.

B1: C-terminally tagged soluble SARAF luminal domain, SP-SARAFL-XFP-R (domain or fragment, human)
chain: WNDPDRMLLRDVKALTLHYDRYTTSRRLDPIPQLKCVGGTAGCDSYTPKVIQCQNKGWDGYDVQWECKTDLDIAYKFGKTVVSCEGYESSEDQYVLRGSCGLEYNLDYTELGLQKLKESGKQHGFASFSDYYYKTGRPACKIPNDLKQKVMNHKDEL
Turning to B1, the “FRET signal, fold over the pair with both fluorophores at the N-terminus” value is around 3 fold.
